Measurements reported in patent US12533399B2, “Composition comprising tTF-NGR for use in treating soft-tissue sarcoma” (ANTUREC PHARMACEUTICALS GMBH, priority 2020, dated 2026).

What was measured:
HUVEC = test: PS upregulation on HUVEC cell membranes, flow cytometry with annexin V-FITC; assay type: cell-based, human
Experimental: FIG. 4: illustration of the synergistic activity of tTF-NGR and Trabectedin in human vascular endothelial cells (HUVEC). […] PS is detected by the fluorescent PS-binding annexin V-FITC.
This effect is specifically dependent on the presence of PS as it can be completely abolished by masking PS via preincubation with annexin V.

[1] = tested on: HT1080 human sarcoma cells; test: PS upregulation on HT1080 sarcoma cells; assay type: cell-based; conditions: Trabectedin 10 nM, 8 h; 6 experiments; p=0.001 vs non-Trabectedin control
Experimental: FIG. 5: illustration of the synergistic activity of tTF-NGR and Trabectedin in HT1080 human sarcoma cells. […] Means+standard error (p value=0.001). Propidiumiodide was used as an internal necrosis control. […] Means of 4 experiments+standard error and p-values.
As in tumor tissues part of the inner vascular cell layer of the neovasculature is not formed by endothelial cells, but also by tumor cells, which is termed “vascular mimicry”, analog experiments were also performed with HT1080 human sarcoma cells instead of HUVECs (see FIG. 5).

tumor = test: Intravascular contrast enhanced MRI of the tumor after tTF-NGR (FIG. 3); assay type: in vivo; conditions: few hours after tTF-NGR application
Description: FIG. 3: illustration of the therapeutic activity and modes of action of tTF-NGR by different imaging techniques. 1. Bluish coloration of the tumor (A, left: tTF-NGR. A, right: vehicle control) few hours after injection of tTF-NGR macroscopically visualizing blood pooling and vascular disruption. 2. Intravascular contrast enhanced Magnetic Resonance Imaging (MRI) of the tumor showing anatomy of the tumors (A, B) and drastic decrease of blood flow from high blood flow (C) to low (D) few hours after tTF-NGR application. The vascular volume fraction was quantified to decrease>1 log. 3. H&E staining of sarcoma xenograft tissue (A, thrombosis, blood pooling and vascular disruption after tTF-NGR; B, saline control with normal vasculature). 4. In vivo fluorescence reflectance imaging showing the vascular anatomy by intravascular fluorescent fibrin after tTF-NGR (B). A, before tTF-NGR; B, 1 hour after tTF-NGR; C, vascular disruption 24 hours after tTF-NGR.

[2] = Toxicity evaluation according to EU-guidelines S6 and S9; assay type: in vivo; conditions: most sensitive species (mouse)
Description: tTF-NGR was produced using E. coli via a clinical-grade production process and a 4-step HPLC purification. The production process and the GMP facility are approved by the regional government (Manufacturer's Authorisation by Regierungspräsidium) and the federal Paul Ehrlich-Institute (PEI). Toxicity evaluation according to EU-guidelines S6 and S9 in mouse, rat, guinea pigs, and dogs has been completed.

[3] = tested on: late stage solid tumor and lymphoma patients; test: Clinical phase I study of tTF-NGR: DLT, safety, response; assay type: in vivo, human
Experimental: (§1) A clinical phase I trial was performed (EudraCT-No.: 2016-003042-85; NCT02902237) with tTF-NGR applied as 1-hour infusion solved in 0.9% NaCl via a central venous line in late stage cancer patients. This trial was a first-in-class trial, which was guided by repeated contrast-enhanced ultrasound (CEUS) and MRI to assess for blood flow decrease in tumor signal lesions. A “5-day q day 22” schedule was used in the study design.
This sensitive laboratory DLT was fast reversible and allows early monitoring for subsequent dose adjustment in future trials. […] Thus, the trial was completed with a recommended dose for phase II (RPIID) at 3 mg/m^2/day×5, q d 22. The investigational medicinal product (IMP) is given via a PORT central venous access in 100 mL 0.9% NaCl over a rate-controlled infusion with a 1-hour duration.
(§2) The tumor blood flow inhibition was up to >1-log-step. […] In none of the patients treated so far a CR or a PR could be observed.

[4] = Clinical phase I study of tTF-NGR: pharmacokinetics; assay type: in vivo, human; conditions: patients
Experimental: as §1

[5] = tested on: tumor blood flow (intratumoral blood circulation); test: Clinical phase I study of tTF-NGR: tumor blood flow by CEUS and MRI; assay type: in vivo, human; conditions: patients
Experimental: as §1, §2

CD13 = target: T1, CD13 (Homo sapiens, UniProt P15144); test: Binding of tTF-NGR to its target on growing endothelial cells; assay type: cell-based
T1 construct: endogenous in cells; host or cells: growing / stimulated endothelial cells (EC)
Experimental: (§3) These fusion proteins were tested in vitro and in vivo for essential therapeutic properties, such as pro-coagulatory activity, specific binding to their respective target molecules on stimulated endothelial cells (EC) or pericytes, in vivo intratumoral accumulation, in vivo intratumoral activation of coagulation, tumor vascular occlusion and inhibition of blood flow, pharmacodynamic properties including therapeutic antitumor activity in xenotransplants of human tumors from different histologic origin, and finally rodent as well as non-rodent animal safety and toxicology. […] Preclinical therapeutic activity of tTF-NGR was independent of tumor histology (e.g. melanoma, lung, breast, sarcoma, glioblastoma).

[6] = tested on: xenotransplants of human tumors; test: Preclinical therapeutic activity in xenotransplants of human tumors; assay type: in vivo
Experimental: as §3

T1 sequence (P15144 whole entry): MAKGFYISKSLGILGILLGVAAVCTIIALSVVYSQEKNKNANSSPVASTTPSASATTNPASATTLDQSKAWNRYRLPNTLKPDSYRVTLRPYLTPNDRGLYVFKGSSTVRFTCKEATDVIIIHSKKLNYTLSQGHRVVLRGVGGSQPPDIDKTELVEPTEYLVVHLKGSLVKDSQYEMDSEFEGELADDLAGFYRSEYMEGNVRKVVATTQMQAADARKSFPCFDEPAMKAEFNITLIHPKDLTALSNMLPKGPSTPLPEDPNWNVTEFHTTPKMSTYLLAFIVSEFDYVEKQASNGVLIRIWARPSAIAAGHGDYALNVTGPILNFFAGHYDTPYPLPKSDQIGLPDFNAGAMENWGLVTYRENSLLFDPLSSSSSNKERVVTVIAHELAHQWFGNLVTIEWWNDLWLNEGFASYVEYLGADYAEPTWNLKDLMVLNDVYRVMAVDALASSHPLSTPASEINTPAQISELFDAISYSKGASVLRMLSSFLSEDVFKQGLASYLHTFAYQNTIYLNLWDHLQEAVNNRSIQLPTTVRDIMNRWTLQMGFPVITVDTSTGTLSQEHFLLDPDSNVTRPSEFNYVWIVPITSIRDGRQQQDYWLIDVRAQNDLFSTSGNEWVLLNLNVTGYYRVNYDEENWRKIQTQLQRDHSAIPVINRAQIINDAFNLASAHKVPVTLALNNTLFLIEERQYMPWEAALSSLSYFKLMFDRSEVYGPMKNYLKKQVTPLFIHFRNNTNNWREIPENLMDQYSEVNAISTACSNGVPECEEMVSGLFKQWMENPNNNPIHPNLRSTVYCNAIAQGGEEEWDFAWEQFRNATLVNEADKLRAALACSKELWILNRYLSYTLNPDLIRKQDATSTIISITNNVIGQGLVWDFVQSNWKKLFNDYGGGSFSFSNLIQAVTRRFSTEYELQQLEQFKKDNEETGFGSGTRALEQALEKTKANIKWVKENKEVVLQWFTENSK

Row | Molecule | PS-positive cells (lower right quadrant) (HUVEC; Trabectedin 15 nM, 8 h incubation, 7.21% without Trabectedin, one example experiment) [%] | PS upregulation on HUVECs (HUVEC; increasing doses, after 8 and 12 h, 7 experiments, P<0.0001 vs non-Trabectedin control) | PS upregulation on HT1080 sarcoma cells [1] | decrease of vascular volume fraction (tumor) [log] | limiting toxicity [2] | adverse event ([3]; at 3 mg/m^2, CTCAE II resolved, patient with angiosarcoma in left atrium) | kind of dose-limiting toxicity ([3]; at 4 mg/m^2/day, fast reversible, no clinical sequelae) | adverse event ([3]; at 4 mg/m^2, CTCAE grade II and resolved) | adverse event ([3]; at 5 mg/m^2, 1 patient, completely resolved) | dose limiting toxicity (DLT) dose ([3]; daily 1-hour iv infusions for 5 days, q day 22) [mg/m^2 per day] | patients with CR or PR ([3]; patients treated so far) | human anti-fusion protein antibodies (HAFA) ([3]; without clinical symptoms or neutralizing capacity) | recommended dose for phase II (RPIID) ([3]; x5, q d 22) [mg/m^2/day] | accumulation with repeated cycles [4] | mean terminal half life ([4]; 1-hour iv infusion) [h] | blood flow in normal organs [5] | tumor blood flow inhibition ([5]; up to) [log-step] | binding to CD13 on growing EC (CD13) | effect on tumor growth ([6]; independent of tumor histology (melanoma, lung, breast, sarcoma, glioblastoma)) | resistance development ([6]; repeated rounds of treatment)
1 | COc1cc2c(cc1O)CCN[C@]21CS[C@@H]2c3c(OC(C)=O)c(C)c4c(c3[C@H](COC1=O)N1[C@@H]2[C@H]2c3c(cc(C)c(OC)c3O)C[C@@H]([C@@H]1O)N2C)OCO4 [Trabectedin] | 29.22 | PS upregulation | significant PS upregulation |  |  |  |  |  |  |  |  |  |  |  |  |  |  |  |  | 
2 | tTF-NGR: fusion protein of truncated tissue factor (tTF) with C-terminal NGR targeting peptide binding CD13 and N-terminal His-tag, SEQ ID NO: 2 (protein, His-tTF-NGR fusion protein) MHHHHHHSSGLVPRGSGMKETAAAKFERQHMDSPDLGTDDDDKAMGSGTTNTVAAYNLTWKSTNFKTILEWEPKPVNQVYTVQISTKSGDWKSKCFYTTDTECDLTDEIVKDVKQTYLARVFSYPAGNVESTGSAGEPLYENSPEFTPYLETNLGQPTIQSFEQVGTKVNVTVEDERTLVRRNNTFLSLRDVFGKDLIYTLYYWKSSSSGKKTAKTNTNEFLIDVDKGENYCFSVQAVIPSRTVNRKSTDSPVECMGQEKGEFRGNGRAHA |  |  |  | > 1 | pulmonary embolism | transient ischemic attack | temporary troponin T hs showed increase | central venous catheter-related venous thrombosis | CTCAE grade II lower limb deep vein thrombosis | 5 | none | detected in few patients | 3 | no accumulation | 8.99 | without blood flow decrease in normal organs | > 1 | specifically binds to CD13 | tumor growth inhibition and regression | no resistance development
